Data on 15 sequences can be found in the DeepSol protein solubility set.

The nature of this series: soluble on expression in E. coli; label from the status in PepcDB or PDB records.
As to “MAHHHHHHMPSSFAAQQQGSCNPHQNPVRSHKGGYLRCPFNISSSYAELAERRVHEDLACGRSRAAVADKDGVKAFPSTGPQVDSDGIDGDFAGRPWSRAGVGANRLSGKEKRTQQEQAEHIYGRGTLAEDDGAVAATGAVSVTSDLLQENMFAVDVRERAALQKVVPRAVREQVKRRKLEDVKKERLSPGNHCRHGCAPLHTDRAAGEEAGEDDDVESRSEDHMAGPPRERTRFSSPAAGSSRVGAPPLPHSAGSKDHPSGGSSSANVGAERSPRSGPSDASAQRPPLREPTPAPVSAKSNCPKNRMQMLDGLRASALMNKKGRR”, the “soluble on expression in E. coli” value is “soluble”.

On to “QESVEDSLATVKVVLIPVGQEIVIPFKVDTILKYLKDHFSHLLGIPHSVLQIRYSGKILKNNETLVQHGVKPQEIVQVEIFSTNPDLYPVRRIDGLTDVSQIITV”, for which the “soluble on expression in E. coli” value was “soluble”.

As to “MSILNDYKRKTEGSVFWAQRARSVMPDGVTADTRAFDPHGLFISDAQGVHKTDVDGNVYLDFFGGHGALVLGHGHPRVNAAIAEALSHGVQYAASHPLEVRWAERIVAAFPSIRKLRFTGSGTETTLLALRVARAFTGRRMILRFEGHYHGWHDFSASGYNSHFDGQPAPGVLPETTANTLLIRPDDIEGMREVFANHGSDIAAFIAEPVGSHFGVTPVSDSFLREGAELARQYGALFILDEVISGFRVGNHGMQALLDVQPDLTCLAKASAGGLPGGILGGREDVMGVLSRGSDRKVLHQGTFTGNPITAAAAIAAIDTILEDDVCAKINDLGQFAREAMNHLFARKGLNWLAYGRFSGFHLMPGLPPNTTDTGSITRAEVARPDVKMIAAMRMALILEGVDIGGRGSVFLSAQHEREHVEHLVTTFDRVLDRLADENLLSWQGTNLSGNQS”, the “soluble on expression in E. coli” value is reported as “soluble”.

Consider “MARRRRAEVRQLQPDLVYGDVLVTAFINKIMRDGKKNLAARIFYDACKIIQEKTGQEPLKVFKQAVENVKPRMEVRSRRVGGANYQVPMEVSPRRQQSLALRWLVQAANQRPERRAAVRIAHELMDAAEGKGGAVKKKEDVERMAEANRAYAHYRW”, for which the “soluble on expression in E. coli” value is recorded as “soluble”.

Regarding “MSSSHKSWNSIYEFTVKDINGVDVSLEKYRGHVCLIVNVACKCGATDKNYRQLQEMHTRLVGKGLRILAFPCNQFGGQEPWAEAEIKKFVTEKYGVQFDMFSKIKVNGSDADDLYKFLKSRQHGTLTNNIKWNFSKFLVDRQGQPVKRYSPTTAPYDIEGDIMELLEKK”, the “soluble on expression in E. coli” value is recorded as “soluble”.

Take “PSPREQLMESIRKGKELKQSRPPLKKASDRQLGPPRMCEPSPREQLMESIRKGKELKQSRPPLKKASDRQLGPPRMCEPSPREQLMESIRKGKELKQA”: the “soluble on expression in E. coli” value was “soluble”.

Take “MDLALFDLDETLISDDSTGLWIRWLVNEGLAPFELSEQEQTLMTQYYQGQLSMAGYMAATLSPLVGKHTAEVAGWVEHFIAHDILPRIYPQALEKLAWHRDRGDYIVIISASGEHLVTPIAKHFAADTALSIGVTVENDRYTGQTYGTLTYQKGKVDRLNQWLSASPQLNFKRSYGYSDSINDQPLLEYVDHAAVINPGAELIDLAVLHQWDIHHW”: the “soluble on expression in E. coli” value was “not soluble”.

As for “MSSMSESDSYQSSQLTSEPDLVALDAKIMAVMDGTEELEREIGKMMALQQAISDYKKSHQHRTQRTKEKLTDMSKDLTITGKNIVKSCEERLKQISDVTEPYINSGISSVEDHTSSVVERCIQMLGAISGLGGAMKKTEGLSSKVLEHHRKLAIMEHKQADAISRYEKAVGVQKLVREHPAGDPLHELANLLGIFLALQQSPNTSEYYKKVFDGFGGRVTALFAEIDRPKTAKSLATRSGMSTLSSMSNGEINLESIKDNTEIPVDTCQ”, the “soluble on expression in E. coli” value is given as “not soluble”.

For the sequence “MWRLYRKTPKQLRNSVESCFKSVNSRQFSVSSFSAVAKDDKSVLKQQEVLHLLAKDQRFEERFFNQVQQTIRYFASKPNDLKKFFRKEASTDNKESSSSSDKKDSKGNKGEDNNPFNQFPGGWQQIAVSVGILLALYAFMDYQSYREISWKEFYSDFLEAGLVERLEVVDKRWVRIVSSSGKYAGQTCYFNIGSVDSFERSLGAAQHHLQYDADRQIPVLYKSEFNFKREIPNLISVAFPLLFGYYIYRMLKGGGAAGGAGRAGGGGLGGMFGGFGQSTARVINREDIKVKFADVAGCEEAKIEIMEFVNFLKNPQQYKDLGAKIPKGAILTGPPGTGKTLLAKATAGEANVPFITVSGSEFLEMFVGVGPARVRDMFSMARKNSPCILFIDEIDAVGRKRGGKGGMGGHSEQENTLNQLLVEMDGFTTDESSVIVIAATNRVDILDSALLRPGRFDRQIYVPVPDIKGRASIFRVHLGPLRTSLDKTVLSRKLAAHTPGFSGADISNVCNEAALIAARDANHEISNKHFEQAIERVVAGMEKKTQVLQKEEKKTVAYHEAGHAIAGWFLQHADPLLKVSIIPRGKGLGYAQYLPKEQYLYSKDQLLDRMCMTLGGRVAEEIFFGRITTGAQDDLQKVTQMAYSQVVKFGMSEKVGPLSFETPAPGEMAFDKPYSEATAQLIDQEVRDLVMNALRRTRDLLLEKRSDIERVALRLLEKEILNREDMIELVGKRPFVEKNTYEEMVSGTGGLDENVELPKGLENWNKESEKKKKDEEKKKNDE”, the “soluble on expression in E. coli” value was “not soluble”.

In the case of “GMNIEKTRFCINRKIAPGLSIEAFFRLVKRLEFNKVELRNDMPSGSVTDDLNYNQVRNLAEKYGLEIVTINAVYPFNQLTEEVVKKTEGLLRDAQGVGARALVLCPLNDGTIVPPEVTVEAIKRLSDLFARYDIQGLVEPLGFRVSSLRSAVWAQQLIREAGSPFKVLLDTFHHHLYEEAEKEFASRIDISAIGLVHLSGVEDTRPTEALADEQRIMLSEKDVMQNYQQVQRLENMGYRGIYAFEPFSSQLASWSEAEIEEQINRSVSLLLQ”, the “soluble on expression in E. coli” value is listed as “soluble”.

For the sequence “MAVQLLENWLLKEQEKIQTKYRHLNHISVVEPNILFIGDSIVEYYPLQELFGTSKTIVNRGIRGYQTGLLLENLDAHLYGGAVDKIFLLIGTNDIGKDVPVNEALNNLEAIIQSVARDYPLTEIKLLSILPVNEREEYQQAVYIRSNEKIQNWNQAYQELASAYMQVEFVPVFDCLTDQAGQLKKEYTTDGLHLSIAGYQALSKSLKDYLY”, the “soluble on expression in E. coli” value is “soluble”.

In the case of “MSLTECFLSDQEIRKLNRDLRILIAANGTLTRVLNIVADDEVIVQIVKQRIHDVSPKLSEFEQLGQVGVGRVLQRYIILKGRNSEHLFVAAESLIAIDRLPAAIITRLTQTNDPLGEVMAASHIETFKEEAKVWVGDLPGWLALHGYQNSRKRAVARRYRVISGGQPIMVVTEHFLRSVFRDAPHEEPDRWQFSNAITLAREGHHHHHH”, the “soluble on expression in E. coli” value is “soluble”.

Turning to “MAHHHHHHMESIKAKCTAKNLVNEKPAQKTPLSISISEKHKAQLREAFDLFDSEGTGRIKALDVKVALCALGYDVSKEELTQLLKQVGGSIVGGVDFNEFYCVLLAKMMQRESRSEAIRAFRLIDVAEKGYISVDDLRPIADSLEMDLTDDELAEMVLFAHPPVGFGKNENDIKEPLTVSEEEFLKLMGRAHVY”, the “soluble on expression in E. coli” value was “soluble”.

For “MSKSSNSDSQKSLPSPGHPSTGRPDLDLITDPLEEQRLEPQRDSHRSDTRGHPSTGRKSHNSTSAQSSVYNSRTDPENAAMDSDEELRKMMEGFVDDEESDPTYEPP”, the “soluble on expression in E. coli” value is recorded as “soluble”.

On to “MSLVAVRSAHINKAGEFDPEKWIASLGITSQKSCECLAETWAYCLQQTQGHPDASLLLWRGVEMVEILSTLSMDIDTLRAALLFPLADANVVSEDVLRESVGKSVVNLIHGVRDMAAIRQLKATHTDSVSSEQVDNVRRMLLAMVDDFRCVVIKLAERIAHLREVKDAPEDERVLAAKECTNIYAPLANRLGIGQLKWELEDYCFRYLHPTEYKRIAKLLHERRLDREHYIEEFVGHLRAEMKAEGVKAEVYGRPKHIYSIWRKMQKKNLAFDELFDVRAVRIVAERLQDCYAALGIVHTHYRHLPDEKDDYVANPKPNGYQSIHTVVLGPGGKTVEIQIRTKQMHEDAELGVAAHWKYKEGAAAGGARSGHEDRIAWLRKLIAWQEEMADSGEMLDEVRSQVFDDRVYVFTPKGDVVDLPAGSTPLDFAYHIHSDVGHRCIGAKIGGRIVPFTYQLQMGDQIEIITQKQPNPSRDWLNPNLGYVTTSRGRSKIHAWFRKQDRDKNILAGRQILDDELEHLGISLKEAEKHLLPRYNFNDVDELLAAIGGGDIRLNQMVNFLQSQFNKPSAEEQDAAALKQLQQKSYTPQNRSKDNGRVVVEGVGNLMHHIARCCQPIPGDEIVGFITQGRGISVHRADCEQLAELRSHAPERIVDAVWGESYSAGYSLVVRVVANDRSGLLRDITTILANEKVNVLGVASRSDTKQQLATIDMTIEIYNLQVLGRVLGKLNQVPDVIDARRLHGSEGHHHHHH”, for which the “soluble on expression in E. coli” value is “not soluble”.
